The term Km denotes the substrate concentration at which the rate is half of its maximum. The kcat is the maximal rate divided by the concentration of active sites. One may read the kcat/Km as the second-order rate constant that governs catalysis at low substrate concentration.

Series [1] concerns C[C@@H](O)[C@H]1C(=O)N2C(C(=O)O)=C(S[C@@H]3CN[C@H](C(=O)N(C)C)C3)[C@H](C)[C@H]12. The series can be described thus: purified protein. The settings on record: phosphate-buffered solution (1x), 50 µM ZnSO4, room temperature.
Series [2] deals with C[C@@H](O)[C@H]1C(=O)N2C(C(=O)O)=C(SCCN=CN)C[C@H]12. Put plainly: purified protein. Conditions: phosphate-buffered solution (1x), 50 µM ZnSO4, room temperature.

Take VIM-2 (Pseudomonas aeruginosa): in series [1], the Km came out at 5.37 µM, the kcat is 2.1 s⁻¹ and the kcat/Km turned out to be 400000 M⁻¹ s⁻¹. For the same substance, in series [2], the Km turned out to be 10.31 µM, the kcat was 11.1 s⁻¹ and the kcat/Km is 1.1e+06 M⁻¹ s⁻¹.

These data come from PMC10580930.
